B1: V5-tagged GluN2B C-terminal, cytosolic tail (amino acids 839-1484) (domain or fragment, human, UniProt Q13224 839-1484, looked up)
chain: EHLFYWQFRHCFMGVCSGKPGMVFSISRGIYSCIHGVAIEERQSVMNSPTATMNNTHSNILRLLRTAKNMANLSGVNGSPQSALDFIRRESSVYDISEHRRSFTHSDCKSYNNPPCEENLFSDYISEVERTFGNLQLKDSNVYQDHYHHHHRPHSIGSASSIDGLYDCDNPPFTTQSRSISKKPLDIGLPSSKHSQLSDLYGKFSFKSDRYSGHDDLIRSDVSDISTHTVTYGNIEGNAAKRRKQQYKDSLKKRPASAKSRREFDEIELAYRRRPPRSPDHKRYFRDKEGLRDFYLDQFRTKENSPHWEHVDLTDIYKERSDDFKRDSVSGGGPCTNRSHIKHGTGDKHGVVSGVPAPWEKNLTNVEWEDRSGGNFCRSCPSKLHNYSTTVTGQNSGRQACIRCEACKKAGNLYDISEDNSLQELDQPAAPVAVTSNASTTKYPQSPTNSKAQKKNRNKLRRQHSYDTFVDLQKEEAALAPRSVSLKDKGRFMDGSPYAHMFEMSAGESTFANNKSSVPTAGHHHHNNPGGGYMLSKSLYPDRVTQNPFIPTFGDDQCLLHGSKSYFFRQPTVAGASKARPDFRALVTNKPVVSALHGAVPARFQKDICIGNQSNPCVPNNKNPRAFNGSSNGHVYEKLSSIESDV
B2: HA-tagged spinophilin, full length (amino acids 1-817, fragment A) (natural protein)
chain: not shown

The target of test [1] is B2. Briefly: co-IP.
Test [2] addresses B1. Briefly: co-IP.

Take B1: in test [1], the “fold change of co-IP with IBMX/forskolin against vehicle (HA IP)” value was 1.48 ratio to control and the “fold change of co-IP with PKAc overexpressed against without (spinophilin IP)” value is 2.14 ratio to control.

As for B2, in test [2], the “fold change of co-IP with IBMX/forskolin against vehicle (V5 IP)” value was 3.05 ratio to control and the “fold change of co-IP with PKAc overexpressed against without (GluN2B_(Tail) IP)” value was 10.6 ratio to control.

The record behind these values is PMC7537107 (Journal of neurochemistry, 2019).
